This sample holds only a part of the variants without activity.
Assays:
biotinyl-Val-oxazolone = assay: self-aminoacylation, catalytic enhancement (BVO) (fold over background); higher = more active; k-Seq, kA / k0A0; sequences stand for … in GGGAAUGGAUCCACAUCUACGAAUUC…UUCACUGCAGACUUGACGAAGCUG
Procedure, shortened: (§1)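 The uncatalyzed rate is the low-activity peak of a bimodal Gaussian fit, and catalytic enhancement is median kA divided by it. The kA values came from pseudo-first-order fits, with 1000 bootstraps, of per-sequence fraction reacted measured by streptavidin capture, triplicate qPCR and Illumina sequencing. Mutagenized RNA pools with a 21-nt variable region (0.43 μM) were reacted with each biotinyl-aminoacyl-oxazolone at 2–1250 μM in 50 μL HEPES/NaCl/KCl/MgCl2/CaCl2 buffer with 5% acetonitrile, pH 6.9–7.0, for 90 minutes at room temperature.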

biotinyl-Phe-oxazolone = assay: self-aminoacylation, catalytic enhancement (BFO) (fold over background); higher = more active; k-Seq, kA / k0A0; sequences stand for … in GGGAAUGGAUCCACAUCUACGAAUUC…UUCACUGCAGACUUGACGAAGCUG
Procedure, shortened: as §1

biotinyl-Leu-oxazolone = assay: self-aminoacylation, catalytic enhancement (BLO) (fold over background); higher = more active; k-Seq, kA / k0A0; sequences stand for … in GGGAAUGGAUCCACAUCUACGAAUUC…UUCACUGCAGACUUGACGAAGCUG
Procedure, shortened: as §1

biotinyl-Ile-oxazolone = assay: self-aminoacylation, catalytic enhancement (BIO) (fold over background); higher = more active; k-Seq, kA / k0A0; sequences stand for … in GGGAAUGGAUCCACAUCUACGAAUUC…UUCACUGCAGACUUGACGAAGCUG
Procedure, shortened: as §1

biotinyl-Trp-oxazolone = assay: self-aminoacylation, catalytic enhancement (BWO) (fold over background); higher = more active; k-Seq, kA / k0A0; sequences stand for … in GGGAAUGGAUCCACAUCUACGAAUUC…UUCACUGCAGACUUGACGAAGCUG
Procedure, shortened: as §1

biotinyl-Met-oxazolone = assay: self-aminoacylation, catalytic enhancement (BMO) (fold over background); higher = more active; k-Seq, kA / k0A0; sequences stand for … in GGGAAUGGAUCCACAUCUACGAAUUC…UUCACUGCAGACUUGACGAAGCUG
Procedure, shortened: as §1

Sequence | self-aminoacylation (biotinyl-Val-oxazolone) | self-aminoacylation (biotinyl-Phe-oxazolone) | self-aminoacylation (biotinyl-Leu-oxazolone) | self-aminoacylation (biotinyl-Ile-oxazolone) | self-aminoacylation (biotinyl-Trp-oxazolone) | self-aminoacylation (biotinyl-Met-oxazolone)
AUUCACCUAGGUCCUCGGUUG [Fam2.2 aminoacylation ribozyme variant] | 1.31 | 4.8 | 1.51 | 1.13 | 0.815 | 1.39
AUUCACCUAGGUCAUAGGGUU [Fam2.2 aminoacylation ribozyme variant] | 0.804 | 0.392 | 0.676 | 0.918 | 0.959 | 0.827
AUUCACCCAGUUCAUCGGGUG [Fam2.2 aminoacylation ribozyme variant] | 2.72 | 10.8 | 2.6 | 2.48 | 2.33 | 2.52
AUUCACCGAGGUCAUUGGGUG [Fam2.2 aminoacylation ribozyme variant] | 3.88 | 42.6 | 8.02 | 3.83 | 5.88 | 6.99
UCACACUUAAAGCAAUCGGUC [Fam1B.1 aminoacylation ribozyme variant] | 0.844 | 0.642 | 0.761 | 0.86 | 0.575 | 0.737
AUUCACCUAGGUAAUCGGGCG [Fam2.2 aminoacylation ribozyme variant] | 1.65 | 7.69 | 2.62 | 1.63 | 2.33 | 1.66
CUACUUCAAACAAUCGGUACG [Fam1A.1 aminoacylation ribozyme variant] | 0.577 | 2.05 | 0.425 | 0.461 | 0.839 | 0.396
AUUACACUAGUCAUCGAGUGA [Fam2.1 aminoacylation ribozyme variant] | 2.51 | 16.9 | 5.19 | 3.05 | 6.55 | 4.79
GUACUUCAAACAAUCCGUCUG [Fam1A.1 aminoacylation ribozyme variant] | 1.24 | 2.63 | 1.45 | 1.49 | 2.16 | 1.02
CCAGACUUCAAGCAAGCGGUC [Fam1B.1 aminoacylation ribozyme variant] | 0.932 | 0.523 | 1.15 | 0.87 | 0.843 | 0.821
AUGCACCUUGGUCAUCGGGUG [Fam2.2 aminoacylation ribozyme variant] | 5.41 | 65.4 | 9.83 | 5.37 | 8.29 | 7.63
AAGUUUGCUUAUAGUCGCAUG [Fam3.1 aminoacylation ribozyme variant] | 0.999 | 1.33 | 0.926 | 0.918 | 0.976 | 0.857
ACUCACGUAGGUCAUCGGGUG [Fam2.2 aminoacylation ribozyme variant] | 3.73 | 32.9 | 4.27 | 2.89 | 3.88 | 3.04
AUUACCCUGCUCAUCGAGUGA [Fam2.1 aminoacylation ribozyme variant] | 1.52 | 2.7 | 1.87 | 1.34 | 2.33 | 1.99
AUAACCCUGGUCAUGGAGUGA [Fam2.1 aminoacylation ribozyme variant] | 2.48 | 14.6 | 4.08 | 2.6 | 4.89 | 4.2
AUUCUCCUAGGUCAUGGGGUG [Fam2.2 aminoacylation ribozyme variant] | 5.64 | 78.8 | 12.5 | 5.81 | 8.92 | 9.56
CCGCACUUCAAGCUAUCGGUC [Fam1B.1 aminoacylation ribozyme variant] | 1.42 | 0.936 | 0.84 | 1.15 | 1.19 | 0.919
CCACACUUCAAACAAUUGGUC [Fam1B.1 aminoacylation ribozyme variant] | 0.59 | 1.55 | 0.588 | 0.737 | 1 | 0.659
AUUAACCUGGUUAUCGAGUGA [Fam2.1 aminoacylation ribozyme variant] | 3.81 | 41.7 | 9.67 | 4.13 | 10.7 | 8.32
CCACACUUCAAGGAAUCCGUC [Fam1B.1 aminoacylation ribozyme variant] | 1.14 | 0.963 | 1.08 | 1.24 | 1.07 | 1.65
AUUACCGUGGUCAGCGAGUGA [Fam2.1 aminoacylation ribozyme variant] | 3.1 | 19.3 | 4.64 | 3.02 | 6.24 | 4.54
AUUCGCCUAGGUUAUCGGGUG [Fam2.2 aminoacylation ribozyme variant] | 4.33 | 42.5 | 6.76 | 3.77 | 5.88 | 5.77
CUACUUCGAACAAUCGGUUUG [Fam1A.1 aminoacylation ribozyme variant] | 0.717 | 0.591 | 0.526 | 0.649 | 0.404 | 0.581
CUACUUCAAAUUAUCGGUCUG [Fam1A.1 aminoacylation ribozyme variant] | 1.11 | 0.806 | 0.945 | 1.12 | 0.849 | 1.01
AUUCACCUAGUUCGUCGGGUG [Fam2.2 aminoacylation ribozyme variant] | 1.23 | 3.17 | 1.32 | 1.14 | 1.15 | 1.26
UAGAUUGCUAAUAGUCGCAAG [Fam3.1 aminoacylation ribozyme variant] | 1.19 | 1.77 | 1.16 | 1.19 | 1.13 | 1.19

Sequence | self-aminoacylation (biotinyl-Val-oxazolone) | self-aminoacylation (biotinyl-Phe-oxazolone) | self-aminoacylation (biotinyl-Leu-oxazolone) | self-aminoacylation (biotinyl-Ile-oxazolone) | self-aminoacylation (biotinyl-Trp-oxazolone) | self-aminoacylation (biotinyl-Met-oxazolone)
AUUCUCCUAGGACAUCGGGUG [Fam2.2 aminoacylation ribozyme variant] | 3.62 | 27.8 | 5.06 | 2.81 | 3.73 | 4.55
AUUCACCUCGGCCAUCGGGUG [Fam2.2 aminoacylation ribozyme variant] | 5.61 | 56.7 | 7.44 | 4.23 | 6.78 | 6.8
AUUACUUUGGUCAUCGAGUGA [Fam2.1 aminoacylation ribozyme variant] | 3.57 | 25.8 | 7.1 | 3.55 | 8.06 | 6.07
CUACUUCAUACAAUCGGACUG [Fam1A.1 aminoacylation ribozyme variant] | 0.676 | 0.573 | 0.609 | 0.751 | 0.387 | 0.418
AUUGCCCUGGUCAUGGAGUGA [Fam2.1 aminoacylation ribozyme variant] | 2.58 | 23.7 | 4.11 | 2.9 | 4.3 | 3.81
AUUACCAUGUUCAUCGAGUGA [Fam2.1 aminoacylation ribozyme variant] | 3.79 | 36.4 | 7.2 | 4.04 | 9.17 | 7.52
GUUCUCCUAGGUCAUCGGGUG [Fam2.2 aminoacylation ribozyme variant] | 6.51 | 55.1 | 13.7 | 6.21 | 9.42 | 9.55
AAGAUUGCUAAUACUCGCAAG [Fam3.1 aminoacylation ribozyme variant] | 1.37 | 1.48 | 1.24 | 1.72 | 1.91 | 1.41
GUUACCCUGGUCAUCGUGUGA [Fam2.1 aminoacylation ribozyme variant] | 3.08 | 30.3 | 4.75 | 2.6 | 6.06 | 4.3
AUUAAUCUAGGUCAUCGGGUG [Fam2.2 aminoacylation ribozyme variant] | 2.72 | 15 | 4.65 | 2.73 | 4.05 | 3.43
AUCACCCUGGACAUCGAGUGA [Fam2.1 aminoacylation ribozyme variant] | 4.56 | 68.7 | 10.4 | 3.98 | 8.8 | 9.05
AUACUUCACACAAUCGGUCUG [Fam1A.1 aminoacylation ribozyme variant] | 0.861 | 1.15 | 0.683 | 0.901 | 0.814 | 0.927
AAGUUUUUUAAUAGUCGCAAG [Fam3.1 aminoacylation ribozyme variant] | 1.62 | 3.28 | 1.71 | 2.01 | 2.02 | 1.58
AAGUUUCCUAAUAGUCGCAUG [Fam3.1 aminoacylation ribozyme variant] | 1.9 | 2.38 | 1.94 | 2.28 | 2.11 | 1.89
AUUCACCUGGUCAUCGAGUGA [Fam2.1 aminoacylation ribozyme variant] | 3.58 | 9.12 | 5.93 | 3.55 | 8.2 | 5.88
AAGUUUGGUUAUAGUCGCAAG [Fam3.1 aminoacylation ribozyme variant] | 1.39 | 2.69 | 1.38 | 1.7 | 1.46 | 1.23
CUGCUUCACACAAUCGGUCUG [Fam1A.1 aminoacylation ribozyme variant] | 0.757 | 0.641 | 0.836 | 0.733 | 0.824 | 0.911
ACUCCCCUGGUCAUCGAGUGA [Fam2.1 aminoacylation ribozyme variant] | 3.69 | 42.7 | 6.71 | 3.18 | 6.48 | 6.39
CCACUCAUCAAGCAAUCGGUC [Fam1B.1 aminoacylation ribozyme variant] | 0.971 | 0.817 | 0.997 | 0.977 | 0.731 | 0.73
AAGUUUGCUAAUAAUCCCAAG [Fam3.1 aminoacylation ribozyme variant] | 0.961 | 1.03 | 0.736 | 0.76 | 1.38 | 0.949
AUUAACCUGGUCAUCAAGUGA [Fam2.1 aminoacylation ribozyme variant] | 1.85 | 4.41 | 2.94 | 1.76 | 3.18 | 3.1
CUACUUCAAAAAAUCGGUCUA [Fam1A.1 aminoacylation ribozyme variant] | 0.697 | 4.37 | 0.79 | 0.842 | 2.39 | 0.725
CUUCACCUAGGUUAUCGGGUG [Fam2.2 aminoacylation ribozyme variant] | 3.51 | 12.2 | 4.8 | 3.13 | 3.63 | 5.11
CCACACUUCAUGCAAUCUGUC [Fam1B.1 aminoacylation ribozyme variant] | 0.479 | 0.605 | 0.35 | 0.454 | 0.277 | 0.391
ACACACUUCAAGCAAUCAGUC [Fam1B.1 aminoacylation ribozyme variant] | 1.11 | 9.33 | 0.999 | 1.12 | 4.18 | 0.988
